Data taken from EP0638644A1.

Columns and labels:
[1] = biological target: recombinant human IL-12 receptor (clone No. 5, SEQ ID NO:2) expressed in COS cells (human); experiment: equilibrium binding of labelled murine IL-12 to COS cells expressing clone 5, Scatchard, single site (Figure 19B)
[2] = biological target: soluble complex of ¹²⁵I-IL-12 crosslinked to human IL-12R (human) (UniProt P29459); experiment: immunoprecipitation of solubilized 125I-IL-12/IL-12R complex by immobilized control antibody (background)
soluble complex of ¹²⁵I-IL-12 crosslinked to human IL-12R (human), sequence (P29459 23-219, form in doubt, chain 1 of 3, other chains not shown): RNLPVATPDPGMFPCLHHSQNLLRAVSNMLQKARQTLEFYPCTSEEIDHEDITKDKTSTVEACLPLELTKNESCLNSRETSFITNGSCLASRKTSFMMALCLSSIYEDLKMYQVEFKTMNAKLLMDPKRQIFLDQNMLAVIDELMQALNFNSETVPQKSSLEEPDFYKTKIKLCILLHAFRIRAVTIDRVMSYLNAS
soluble complex of ¹²⁵I-IL-12 crosslinked to human IL-12R (human), sequence (P29460 23-328, form in doubt, chain 2 of 3, other chains not shown, further chain): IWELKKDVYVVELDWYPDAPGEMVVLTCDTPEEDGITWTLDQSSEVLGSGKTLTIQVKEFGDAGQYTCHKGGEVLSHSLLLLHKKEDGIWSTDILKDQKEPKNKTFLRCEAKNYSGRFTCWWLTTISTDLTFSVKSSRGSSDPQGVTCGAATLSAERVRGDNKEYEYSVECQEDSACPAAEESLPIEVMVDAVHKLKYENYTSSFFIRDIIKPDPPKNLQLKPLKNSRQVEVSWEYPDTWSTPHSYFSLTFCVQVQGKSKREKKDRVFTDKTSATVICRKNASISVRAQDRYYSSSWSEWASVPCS

Substance	Kd [1]	I.P. ASSAY (cpm bound) [2]
Recombinant murine IL-12 (from UniProt P43431 23-215; P43432 23-335) (ligand)	2.1 nM	–
Control mAb (Table 1) (antibody)	–	402 cpm
